Each sequence was assayed on MS2 coat protein (assay: apparent KD of MS2 coat protein, switch ON state; designed switch direction (-1 OFF switch, 1 ON switch): -1; higher = weaker reporter binding). Details: FMN input: 0 or 200 uM; Eterna round: R93 (includes R88 designs).
Method in brief: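 Designed RNA switches were made by on-chip transcription from Illumina sequencing clusters and then titrated with SNAP-549-labelled MS2 coat protein. Twofold steps ran from 0.7 or 1.5 nM to 3 µM, each lasting 0.8–1.5 h early and 10–20 min late, in 100 mM Tris-HCl pH 7.5, 80 mM KCl, 4 mM MgCl2, without or with constant ligand. Apparent KD is the per-design median of normalised cluster binding-curve fits.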

Which “apparent KD of MS2 coat protein” value does the source give for “AACAGUACAGGAUAUACAUGAGGAUCACCCAUGUGAGCAUUAAAAGGCGUACCUAAAAGUAGAAGGGUACUGGA [JL Maslow Revisted mod 22]” here?
Its value is 24.8 nM.

For “AAAAGGUGAGGAUAUUCGAAAAUAAAAGAAAAUAAAAGAAAGAAGAAGGCACAUGAGGAUCACCCAUGUAAUAA [LROPPY Exclusion 4 - v02_deltaG=2.94 break up the As mixed]”, which “apparent KD of MS2 coat protein” value is on record?
Its value is 30.1 nM.

“AAUAACCGAGGAUAUACAAAACCUGUGAUCUAGUGGAUUUUACAUGAGGAUCACCCAUGUAGAAGGCGGACAAG [Atdiiste]” was tested. Which “apparent KD of MS2 coat protein” value did it give?
The value was 49.9 nM.

“AAAUAGUUAGGAUAUACAUGAGGAUCACCCAUGUGGACUUAUGGAGAAUAAUUUAAUGGUAGAAGGGACUAAAA [EX2 Malc#26]” was tested. Which “apparent KD of MS2 coat protein” value did it give?
The value was 54.3 nM.

For “GAAAAACAUGAGGAUCACCCAUGUCAGGAUAUCGAAAAAAAUAAAAAAGAAAAGAAAACGAGAAGGGACAAAAG [Mat - Same state - Mayanna Mod - D112]”, which “apparent KD of MS2 coat protein” value is on record?
Its value is 31.6 nM.

How did the “apparent KD of MS2 coat protein” value turn out when “AAAAAGGCAGGAUAUACGAACAUGUCGAAAGACGUGAAGGGACAUGAGGAUCACCCAUGUAGAAGGGUCAAGAA [Mat - Exclusion 2 - JL mod - D76]” was run?
Its value is 90.8 nM.

With “AAAAAAGGAGGAUAUACGUACAUGUCAAAAGACGUGAAGGGACAUGAGGAUCACCCAUGUAGAAGGCUUAAAAA [JL Stem Breaker 6]” as the sequence, how does the “apparent KD of MS2 coat protein” value read?
The value was 47.7 nM.

“AUAAUCCUAGGAUAUACAUGGAUAUACAUUCAUGUGGACCUACAUGAGGAUCACCCAUGUAGAAGGAGGAUGAA [Mat - Same state - Mayanna Mod - D138]” was tested. Which “apparent KD of MS2 coat protein” value did it give?
The value was 35 nM.

Which “apparent KD of MS2 coat protein” value does the source give for “GAAAAGGAAGGAUAUACAAAGGGACCUUAUAAAAGAAGAAGACAUGAGGAUCACCCAUGUAGAAGGUCCAGAUA [Diusanatra]” here?
Its value is 19.5 nM.

With “AGCUAGUCAGGAUAUACGAACAAGACAAAAGACGAGAACGGACAUGAGGAUCACCCAUGUAGAAGGGACUAGCA [Diamond 8]” as the sequence, how does the “apparent KD of MS2 coat protein” value read?
Its value is 25.7 nM.

Which “apparent KD of MS2 coat protein” value does the source give for “AAAAAGGCAGGAUAUACAUGAGGAUCACCCAUGUAAAGAAAGAAAGAGGUGAAAGAAAGUAGAAGGGCCAAAAA [Ex3 sub 2]” here?
Its value is 92.9 nM.

With “AAAACUGGAGGAUAUACAUGAGGAUCACCCAUGUGUGGGUAGACUGUGUCGGCGUCAGGUAGAAGGCCACAAAA [Gilly Gone Silly 31 - Jieux - Exclusion 3]” as the sequence, how does the “apparent KD of MS2 coat protein” value read?
The value was 185 nM.

“AUAAACAGAGGAUAUACGCGGAUUAUUGAAAUUAUUGAUUCACAUGAGGAUCACCCAUGUAGAAGGCUGGAAAA [LROPPY Exclusion 2 - v04_doubled Us]” was tested. Which “apparent KD of MS2 coat protein” value did it give?
The value was 35.7 nM.

Which “apparent KD of MS2 coat protein” value does the source give for “AAGUUGUCAGGAUAUGCUUGUCGUCACAAAAGUGAUGACGAGCAGAAGGGACAUGAGGAUCACCCAUGUAAAGA [JL eternac mod 2]” here?
The value was 65.8 nM.

For “UCCACACAUGAGGAUCACCCAUGUGAGGAUAUCUAGAAAACCUCAUGUAAAAAAAUCUAGAGAAGGCAUAUGAA [Design 91: Pseudoknot A]”, which “apparent KD of MS2 coat protein” value is on record?
The value was 24.1 nM.

“GCUGUCCUAGGAUAUACAUGAGGAUCACCCAUGUGAGAGAAAAAAGUGAGAAAGAAAAGUAGAAGGAGGGUAGG [salish99-ex3-104]” was tested. Which “apparent KD of MS2 coat protein” value did it give?
The value was 30.4 nM.

“AAAAAGGCAGGAUAUACGUACAUGUCGAAAGACGUGAAGGGACAUGAGGAUCACCCAUGUAGAAGGGUCAAGAA [Mat - Exclusion 2 - JL mod - D77]” was tested. Which “apparent KD of MS2 coat protein” value did it give?
Its value is 111 nM.

Which “apparent KD of MS2 coat protein” value does the source give for “AACAGUACAGGAUAUACAUGAGGAUCACCCAUGUGAGCAUUAAAAGGCGUACCUCAAAGUAGAAGGGUACUGGA [JL Maslow Revisted mod 23]” here?
Its value is 107 nM.

Which “apparent KD of MS2 coat protein” value does the source give for “AAACGUAGAGGAUAUACAAAAAGAUUACGAAAGUAAUCGGGACAUGAGGAUCACCCAUGUAGAAGGCUACGAAA [Mod2 of Meechl 64% 2]” here?
Its value is 36.7 nM.

Which “apparent KD of MS2 coat protein” value does the source give for “GAAAAACAUGAGGAUCACCCAUGUAAGGAUAUGCUAAAAAACGCAAAAAAAGCGAAUAGCAGAAGGUACAAAAG [Mat - Exclusion 1 - Eli mod - D82]” here?
The value was 22.3 nM.

Which “apparent KD of MS2 coat protein” value does the source give for “CUCAAGUGAGGAUAUCAGUAGUAAAAAAAUAAAAUUACUACUGAGAAGGCACAUGAGGAUCACCCAUGUGCCAA [EX4 335: Super Stable 35]” here?
The value was 14.7 nM.

How did the “apparent KD of MS2 coat protein” value turn out when “AAAAAACAUGAGGAUCACCCAUGUGAGGAUAUCGGUAGUGAGGCCAUAGUGUCAGUAAUGAGAAGGCACAUAAA [Brourd 613 Mod 10 - Jieux - Exclusion 1]” was run?
Its value is 25.4 nM.

Which “apparent KD of MS2 coat protein” value does the source give for “GAAAAACAUGAGGAUCACCCAUGUCAGGAUAUACAAAAUAAAAUAAAAAUAAAAUAAAGUAGAAGGGACAAAAG [Mat - Same state - Mayanna Mod - D107]” here?
The value was 36.7 nM.

For “GUGAAGGAAGGAUAUACAAAGGGACGUUAUAAGAGAAGAAGACAUGAGGAUCACCCAUGUAGAAGGUCCAGAUC [Beorteesri]”, which “apparent KD of MS2 coat protein” value is on record?
The value was 25.9 nM.

With “UAUAGACAUGAGGAUCACCCAUGUGAGGAUAUCAGUAACUACAAAACAUCACAUACAAUGAGAAGGCACAGAAA [JR_Exc001_Sub014]” as the sequence, how does the “apparent KD of MS2 coat protein” value read?
Its value is 40 nM.

With “AAAAAGUGAGGAUAUGUCAAAGGUCACGAAAGUGACAAAGGACAGAAGGCACAUGAGGAUCACCCAUGUGAAAA [Fiskers Exclusion 4D1 65% - Early + late G segment 2]” as the sequence, how does the “apparent KD of MS2 coat protein” value read?
Its value is 26.7 nM.

With “AUAAACGGAGGAUAUACAUGAGGAUCACCCAUGUAAAUAAAUAGGAGAGCCACAAUAAGUAGAAGGUCGAAUAA [JR_Exc003_Sub010]” as the sequence, how does the “apparent KD of MS2 coat protein” value read?
Its value is 35.6 nM.

With “AUAGUACAUGAGGAUCACCCAUGUCAGGAUAUUGGAUAUGACAUAAAAAAAAUGUUAACGAGAAGGGACUAUAA [EX1 Malc#16]” as the sequence, how does the “apparent KD of MS2 coat protein” value read?
The value was 29.2 nM.

How did the “apparent KD of MS2 coat protein” value turn out when “AACUAACAUGAGGAUCACCCAUGUCAGGAUAUGCAAAGAUCGAUCGAACGAUCGAUAAGCAGAAGGGACAAAAA [Amethyst 95]” was run?
Its value is 23.3 nM.

With “AUAUAACAUGAGGAUCACCCAUGUCAGGAUAUCGAACCCAACACAACCAAAAUGUCGGCGAGAAGGGACAAAAA [Default title]” as the sequence, how does the “apparent KD of MS2 coat protein” value read?
Its value is 27.5 nM.

For “CUCUAGUUAGGAUAUGCAAGAAAAGAAGAGAAAGAAAAGAAGCAGAAGGAACAUGAGGAUCACCCAUGUAAGAA [EteRNA is fun!]”, which “apparent KD of MS2 coat protein” value is on record?
The value was 22.7 nM.

Which “apparent KD of MS2 coat protein” value does the source give for “AAAACGCUAGGAUAUACGAAAAAAAAGGGAGAAAAAAAGGGACAUGAGGAUCACCCAUGUAGAAGGAGCAAAAA [Diamond 88]” here?
Its value is 38.5 nM.

With “CUCUUGUGAGGAUAUCCAAGAAAAGAAAAGAAAGAAAAGAAGGAGAAGGCACAUGAGGAUCACCCAUGUAAGAA [EteRNA is fun!]” as the sequence, how does the “apparent KD of MS2 coat protein” value read?
Its value is 38.6 nM.

With “AAGAAGGUAGGAUAUACUAGGGCAACUAAUGCAAAGAUAGGACAUGAGGAUCACCCAUGUAGAAGGGCCAGAAA [JR_Exc002_Sub403]” as the sequence, how does the “apparent KD of MS2 coat protein” value read?
The value was 48 nM.

How did the “apparent KD of MS2 coat protein” value turn out when “AAAAAGUGAGGAUAUUCGGAUAGGAAAACGAAAACCUAUCCGAAGAAGGCACAUGAGGAUCACCCAUGUGGAAG [Mat - Exaclusion 4 - Eli mod - D47]” was run?
The value was 37.2 nM.

With “GGAAAGUAAGGAUAUGCGAACAAACAAACAAACAAAAGGGAACAUGAGGAUCACCCAUGUAGAAGGUGCAAACA [Exclusion 2 Three redone]” as the sequence, how does the “apparent KD of MS2 coat protein” value read?
Its value is 46 nM.

How did the “apparent KD of MS2 coat protein” value turn out when “AACAGGUCAGGAUAUGUGGAAAAAAUAAAAAAAAAUAAAACACAGAAGGGACAUGAGGAUCACCCAUGUAAACA [Mat - Exclusion 4 - Mayanna - D143]” was run?
Its value is 49.3 nM.

With “AAGAAUCGAGGAUAUACAAGAAAGAAAGAAAAGAAAAGAAAACAUGAGGAUCACCCAUGUAGAAGGCGAUAGAA [EteRNA is fun!]” as the sequence, how does the “apparent KD of MS2 coat protein” value read?
The value was 22 nM.

For “AGUUGGCGAGGAUAUACAUGAGGAUCACCCAUGUGAGAGAAAAAAGUGAAAAAGAAAAGUAGAAGGCGCUGACA [73%, Moding Norbert Elias, 3]”, which “apparent KD of MS2 coat protein” value is on record?
Its value is 47.9 nM.

“AAAGCGGCAGGAUAUACAGGAACAAAAGUAUGUGCAUCCGCACAUGAGGAUCACCCAUGUAGAAGGGCUAAUAA [Ontiti]” was tested. Which “apparent KD of MS2 coat protein” value did it give?
The value was 167 nM.

For “AAGAAGUGAGGAUAUCGAAGACUGUCGAAAAGACAGUCGAACGAGAAGGCACAUGAGGAUCACCCAUGUGGGAG [Mat - Exaclusion 4 - Eli mod - D71]”, which “apparent KD of MS2 coat protein” value is on record?
Its value is 80.5 nM.

How did the “apparent KD of MS2 coat protein” value turn out when “GUAAACCUAGGAUAUACAUGAGGAUCACCCAUGUAAAAAUUAAUAAAAAGAAAAACAAGUAGAAGGAGGUAGAU [JR_Exc003_Sub1225]” was run?
The value was 19.6 nM.

“AGCAAGUAAGGAUAUGCGAAGUCAGGACACACACUGACAAAGCAGAAGGUACAUGAGGAUCACCCAUGUAAGCA [Mat - Exaclusion 4 - Eli mod - D62]” was tested. Which “apparent KD of MS2 coat protein” value did it give?
Its value is 21.8 nM.
